First the molecules themselves.
B1: selenomethionine NosA_(1-111) (domain or fragment, UniProt C6FX40 1-111, looked up)
chain: MTEHPAQQLYCTVVLWDLSRSAATVASLRAYLRDHAVDAYTTVPGLRQKTWISSTGPEGEQWGAVYLWDSPEAAYGRPPGVSKVVELIGYRPTERRYYSVEAATEGPAAAA
modifications: selenomethionine in place of methionine (one Met residue at the N-terminal sequence)
notes: NosA, terminal amide synthase of nosiheptide biosynthesis; the crystallised form
B2: truncated NosA_(1-111) variant (domain or fragment, UniProt C6FX40 1-111, looked up)
chain: B1 chain
notes: NosA, terminal amide synthase of nosiheptide biosynthesis
B3: full-length NosA (wild type) (enzyme, UniProt C6FX40 1-151, looked up)
chain: MTEHPAQQLYCTVVLWDLSRSAATVASLRAYLRDHAVDAYTTVPGLRQKTWISSTGPEGEQWGAVYLWDSPEAAYGRPPGVSKVVELIGYRPTERRYYSVEAATEGPAAAAAPFGKGLGLAFDPASPEPLTRPQEFVPPGADAFIPSRPPA
notes: NosA, terminal amide synthase of nosiheptide biosynthesis; Cloned in pET28a by NheI and HindIII; also called WT NosA; WT full-length NosA
B4: C-terminal NosA_(112-151) peptide (peptide, UniProt C6FX40 112-151, looked up)
chain: APFGKGLGLAFDPASPEPLTRPQEFVPPGADAFIPSRPPA
notes: NosA, terminal amide synthase of nosiheptide biosynthesis; Cloned in the pSMT3 vector; source: 15N-labelled in M9 medium for NMR

Data set [1] concerns the molecule itself. Description: crystal structure; Se-Met NosA_(1-111), sitting-drop vapor diffusion at 293 K; 0.02 M magnesium chloride hexahydrate, 0.1 M HEPES pH 6.0-9.0, 22% w/v polyacrylic acid 5100; SAD, 2.40 Å.
Data set [2] deals with the molecule itself. The data set can be described thus: SEC; Superdex 75 10/300 GL, 50 mM Tris-HCl pH 7.5, 50 mM NaCl; retention compared with gel filtration markers of 44 kDa and 17 kDa. (SEC sorts molecules by how far they enter the pores of the column.)
Data set [3] concerns the target B2. Description: ITC; ITC-200, 20 mM Tris-HCl, 150 mM NaCl, pH 7.0, 298 K; who was in the syringe is not told. The conditions noted are these: both partners purified.

Data on four molecules can be found in article PMC4525488, “Structure-based Mechanistic Insights into Terminal Amide Synthase in Nosiheptide-Represented Thiopeptides Biosynthesis” (Scientific Reports, 2015).

In the case of B1, the binding result in data set [1] is reported as “binds”. B2: in data set [2], the “stoichiometry N” value turned out to be 2. On the same count and under the same terms, the result for B3 reads 2. Molecule B4 registered an equilibrium dissociation constant (Kd) in data set [3] of 2400 ± 1200 µM.

A word on the stoichiometry N: it is the number of molecules, sites or subunits per partner or assembly. One may read the Kd as the free concentration of one partner at which half of the binding sites on the other are occupied at equilibrium, for simple one-to-one binding. Higher therefore signals weaker binding.
